Results from patent publication US20190077883A1.

Target: GST-tagged human FcRn (human; Schistosoma japonicum) (UniProt P55899)
Experiment: ELISA pH 6.0, h9C12 variant captured on AdV5 hexon, GST-hFcRn detected with anti-GST-HRP

- Fold change from WT (ELISA) pH 6.0: 3 fold
B1: h9C12 IgG3(b)-Q311R/N434W/M428E/R435H (antibody, part only; not given: variable domains, not shown: another chain or arm of the molecule)
constant: ASTKGPSVFPLAPCSRSTSGGTAALGCLVKDYFPEPVTVSWNSGALTSGVHTFPAVLQSSGLYSLSSVVTVPSSSLGTQTYTCNVNHKPSNTKVDKRVELKTPLGDTTHTCPRCPEPKSCDTPPPCPRCPEPKSCDTPPPCPRCPEPKSCDTPPPCPRCPAPELLGGPSVFLFPPKPKDTLMISRTPEVTCVVVDVSHEDPEVQFKWYVDGVEVHNAKTKPREEQYNSTFRVVSVLTVLHRDWLNGKEYKCKVSNKALPAPIEKTISKTKGQPREPQVYTLPPSREEMTKNQVSLTCLVKGFYPSDIAVEWESSGQPENNYNTTPPMLDSDGSFFLYSKLTVDKSRWQQGNIFSCSVEHEALHWHFTQKSLSLSPGK
